{"source": "patent US20240092919A1", "about": "(Ablynx, published 2024)", "key": {"[1]": {"target": "T1, Cynomolgus TCR/cynomolgus CD3 complex on CHO-K1 cells (rhesus monkey (constant domains …))", "T1 construct": "also called CHO-K1 cyTCR/cyCD3", "T1 TCR alpha": "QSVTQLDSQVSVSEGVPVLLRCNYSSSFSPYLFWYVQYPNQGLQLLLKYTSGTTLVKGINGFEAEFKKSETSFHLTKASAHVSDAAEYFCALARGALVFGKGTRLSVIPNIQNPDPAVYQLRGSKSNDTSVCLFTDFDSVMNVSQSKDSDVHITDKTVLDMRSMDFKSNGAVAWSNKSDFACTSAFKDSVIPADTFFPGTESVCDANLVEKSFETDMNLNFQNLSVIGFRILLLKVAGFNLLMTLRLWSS", "T1 TCR beta": "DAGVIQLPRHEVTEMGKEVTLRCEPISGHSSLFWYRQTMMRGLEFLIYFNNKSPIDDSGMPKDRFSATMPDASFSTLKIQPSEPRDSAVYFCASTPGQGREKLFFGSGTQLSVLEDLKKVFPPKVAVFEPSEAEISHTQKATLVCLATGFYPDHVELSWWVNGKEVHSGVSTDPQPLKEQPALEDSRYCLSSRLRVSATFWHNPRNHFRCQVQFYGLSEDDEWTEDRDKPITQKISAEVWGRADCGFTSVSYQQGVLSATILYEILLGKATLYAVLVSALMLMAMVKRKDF", "T1 chain 3": "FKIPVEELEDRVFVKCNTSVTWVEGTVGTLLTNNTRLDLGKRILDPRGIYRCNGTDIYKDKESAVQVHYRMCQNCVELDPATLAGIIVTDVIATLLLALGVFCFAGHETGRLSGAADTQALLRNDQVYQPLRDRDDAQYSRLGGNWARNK", "T1 chain 4": "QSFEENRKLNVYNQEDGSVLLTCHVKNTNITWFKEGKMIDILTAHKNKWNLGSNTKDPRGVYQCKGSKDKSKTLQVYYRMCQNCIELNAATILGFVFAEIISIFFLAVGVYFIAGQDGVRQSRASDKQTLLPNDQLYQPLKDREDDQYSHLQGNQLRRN", "T1 chain 5": "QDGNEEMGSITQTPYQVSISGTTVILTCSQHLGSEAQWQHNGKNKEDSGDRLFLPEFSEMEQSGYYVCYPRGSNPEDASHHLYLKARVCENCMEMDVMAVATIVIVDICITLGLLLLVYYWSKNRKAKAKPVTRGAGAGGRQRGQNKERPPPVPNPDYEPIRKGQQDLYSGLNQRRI", "T1 chain 6": "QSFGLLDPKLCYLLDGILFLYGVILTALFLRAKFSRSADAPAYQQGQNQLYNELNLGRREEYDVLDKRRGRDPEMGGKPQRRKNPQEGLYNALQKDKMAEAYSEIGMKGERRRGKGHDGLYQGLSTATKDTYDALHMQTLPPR", "experiment": "flow cytometry on CHO-K1 cyTCR/cyCD3 cells; Flag3-His6-tagged ISVD, anti-FLAG M2 + PE goat anti-mouse; MFI (mean PE) [panel CHO-K1 cyTCR/cyCD3]", "method": "Next, cells were washed 3 times with FACS buffer and incubated with 1 μg/ml ANTI-FLAG® M2 Ab (Sigma, F1804) and washed again. […] Subsequently, cells were resuspended in FACS buffer supplemented with 5 nM TO-PRO®-3 Iodide to distinguish live from dead cells, which are removed during the gating procedure. Cells were analyzed using a FACS Array flow cytometer (BD Biosciences) and Flowing Software. First a P1 population which represented more than 80% of the total cell population was selected based on FSC-SSC distribution. In this gate, 10000 cells were counted during acquisition. From this population the TO-PRO®-3+ cells (dead cells) were excluded and the mean fluorescence intensity (MFI) PE value was calculated."}, "[2]": {"target": "T2, Human T cell receptor on human primary T cells (human, UniProt P01848 1-140; P01850 1-176)", "T2 construct": "whole, on cells", "T2 TCR alpha (looked up)": "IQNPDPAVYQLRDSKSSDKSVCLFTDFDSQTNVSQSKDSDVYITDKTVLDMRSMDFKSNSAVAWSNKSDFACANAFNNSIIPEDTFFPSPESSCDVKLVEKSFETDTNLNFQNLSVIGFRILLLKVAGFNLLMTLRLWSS", "T2 TCR beta (looked up)": "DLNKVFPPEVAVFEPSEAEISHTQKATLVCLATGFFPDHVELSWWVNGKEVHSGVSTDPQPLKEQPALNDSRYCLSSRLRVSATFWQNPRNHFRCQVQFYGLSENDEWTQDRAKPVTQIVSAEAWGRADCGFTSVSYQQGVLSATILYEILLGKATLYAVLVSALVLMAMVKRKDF", "experiment": "flow cytometry on human primary T cells; Flag3-His6-tagged ISVD, anti-FLAG M2 + PE goat anti-mouse; MFI (mean PE)", "method": "(§1) The ISVD variants were characterized for binding to CHO-K1 huTCR(2XN9)/huCD3 or to human and cynomolgus primary T cells. […] Next, cells were washed 3 times with FACS buffer and incubated with 1 μg/ml ANTI-FLAG® M2 Ab (Sigma, F1804) and washed again. […] Subsequently, cells were resuspended in FACS buffer supplemented with 5 nM TO-PRO®-3 Iodide to distinguish live from dead cells, which are removed during the gating procedure. Cells were analyzed using a FACS Array flow cytometer (BD Biosciences) and Flowing Software. First a P1 population which represented more than 80% of the total cell population was selected based on FSC-SSC distribution. In this gate, 10000 cells were counted during acquisition. From this population the TO-PRO®-3+cells (dead cells) were excluded and the mean fluorescence intensity (MFI) PE value was calculated."}, "cynomolgus CD33 on cells": {"target": "T3, cynomolgus CD33 on cells (cynomolgus monkey)", "T3 construct": "whole, on cells; also called CHO cy CD33; CHO Flp-In cynoCD33", "experiment": "flow cytometry on transfected cells, cynomolgus CD33 against human CD33"}, "[3]": {"target": "T4, cynomolgus CD123 on cells (cynomolgus monkey)", "T4 construct": "whole, on cells; also called HEK293 cyno CD123; cynomolgus CD123 transfected cell lines", "experiment": "flow cytometry on transfected cells, cynomolgus CD123 against human CD123"}, "[4]": {"target": "T2, Human T cell receptor on human primary …", "experiment": "flow cytometry, human primary T cells", "method": "as §1"}, "[5]": {"target": "T5, Cynomolgus TCR(AEA41865/AEA41866)-zipper protein (cynomolgus monkey)", "T5 construct": "also called cyTCR-zipper protein; cynoTCR zipper", "T5 TCR alpha": "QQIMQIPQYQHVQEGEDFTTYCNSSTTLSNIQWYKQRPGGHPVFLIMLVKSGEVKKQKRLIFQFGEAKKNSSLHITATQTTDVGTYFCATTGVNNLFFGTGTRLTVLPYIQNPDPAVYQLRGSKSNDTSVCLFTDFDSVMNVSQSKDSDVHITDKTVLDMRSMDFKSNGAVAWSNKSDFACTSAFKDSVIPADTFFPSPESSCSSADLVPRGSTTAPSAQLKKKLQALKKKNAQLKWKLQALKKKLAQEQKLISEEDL", "T5 TCR beta": "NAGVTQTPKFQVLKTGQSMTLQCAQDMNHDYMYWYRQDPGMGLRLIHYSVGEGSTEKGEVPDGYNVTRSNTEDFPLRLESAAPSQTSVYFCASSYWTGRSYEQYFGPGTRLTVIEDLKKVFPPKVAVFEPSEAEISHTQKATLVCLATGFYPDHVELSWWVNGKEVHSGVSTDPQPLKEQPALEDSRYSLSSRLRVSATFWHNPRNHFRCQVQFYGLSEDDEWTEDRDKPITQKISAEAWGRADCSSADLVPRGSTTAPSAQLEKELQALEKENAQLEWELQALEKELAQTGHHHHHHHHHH", "experiment": "table head: SPR ProteOn XPR36; text: BLI, Octet RED384, 25 C, immobilised TCR-zipper", "procedure": "Affinity constants (KD) were calculated applying a 1:1 interaction model using the ForteBio Data Analysis software."}, "[6]": {"target": "T2, Human T cell receptor on human primary …", "experiment": "flow cytometry, human primary T cells", "method": "as §1"}}, "note": "Like-named read-outs stand apart in the source and are kept apart here.", "data": [{"binder": "cAbLys3 (VHH, not shown: small tags and cut ends, also called irrelevant anti-egg lysozyme ISVD) VHH: DVQLQASGGGSVQAGGSLRLSCAASGYTIGPYCMGWFRQAPGKEREGVAAINMGGGITYYADSVKGRFTISQDNAKNTVYLLMNSLEPEDTAIYYCAADSTIYASYYECGHGLSTGGYGYDSWGQGTQVTVSS", "values": [{"measurement": "binding result", "setting": "[1]", "value": "no binding (tested: 3e-6 M)"}, {"measurement": "binding result", "setting": "[2]", "value": "no binding (tested: 3e-6 M)"}]}, {"binder": "monovalent CD33 building block (VHH) VHH: EVQLVESGGGVVQPGGSLRLSCAASGGVFRLNSMGWFRQAPGKQRELVAIITSDGDTNYADSVKGRFTISRDQAKNTVYLQMNSLRPEDTALYYCQITYSTSSYSFPINTWGQGTLVTVSS", "values": [{"measurement": "difference in EC50 between human and cynomolgus monkey", "setting": "cynomolgus CD33 on cells", "value": "< 2", "unit": "fold"}]}, {"binder": "monovalent CD123 building block (VHH) VHH: EVQLVESGGGVVQPGGSLRLSCAASGVIFSGNVMGWYRRQAPGKEREWVAAIAEGGSILYRDSVKGRFTISRDNAKNTVYLQMNSLRPEDTALYYCNSHPPVLPYWGQGTLVTVSS", "values": [{"measurement": "difference in EC50 between human and cynomolgus monkey", "setting": "[3]", "value": 3, "unit": "fold"}]}, {"binder": "T0170056G05 (VHH, not shown: small tags and cut ends, also called T01700056G05; parental anti-TCR ISVD) VHH: EVQLVESGGGLVQPGGSLRLSCVASGDVHKINFLGWYRQAPGKEREKVAHISIGDQTDYADSAKGRFTISRDESKNMVYLQMNSLKPEDTAVYFCRAFSRIYPYDYWGQGTLVTVSS", "values": [{"measurement": "EC50", "setting": "[4]", "value": 140, "unit": "nM"}, {"measurement": "Kd", "setting": "[5]", "value": 170, "unit": "nM"}, {"measurement": "EC50", "setting": "[6]", "value": 83, "unit": "nM"}]}]}
